Measurements: US7078507 (US Dept. of Health and Human Services, dated 2006)
Positions count from the first letter of the chain named.

Tests used:
[1] = target: T1, erythrocytes (red blood cells) carrying the EBA-175 receptor glycophorin A (human, UniProt P02724 20-150, sialic acid residues (removed by neuraminidase treatment in FIG. 12)); assay: erythrocyte binding assay
T1 construct: whole, on cells; The assays used whole erythrocytes; also called RBC; human RBCs
T1 sequence: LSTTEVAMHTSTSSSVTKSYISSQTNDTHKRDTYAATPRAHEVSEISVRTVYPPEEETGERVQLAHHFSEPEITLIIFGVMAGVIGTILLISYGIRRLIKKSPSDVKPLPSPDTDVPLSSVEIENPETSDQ

[2] = target: T1, erythrocytes (red blood cells) carrying …; assay: erythrocyte binding assay with human RBCs with or without neuraminidase treatment, immunoblot read-out

B1: Pichia pastoris-expressed recombinant EBA-175 region II (RII) protein, N-glycosylated (ligand)
chain: GRNTSSNNEVLSNCREKRKGMKWDCKKKNDRSNYVCIPDRRIQLCIVNLSIIKTYTKETMKDHFIEASKKESQLLLKKNDNKYNSKFCNDLKNSFLDYGHLAMGNDMDFGGYSTKAENKIQEVFKGAHGEISEHKIKNFRKKWWNEFREKLWEAMLSEHKNNINNCKNIPQEELQITQWIKEWHGEFLLERDNRSKLPKSKCKNNTLYEACEKECIDPCMKYRDWIIRSKFEWHTLSKEYETQKVPKENAENYLIKISENKNDAKVSLLLNNCDAEYSKYCDCKHTTTLVKSVLNGNDNTIKEKREHIDLDDFSKFGCDKNSVDTNTKVWECKKPYKLSTKDVCVPPRRQELCLGNIDRIYDKNLLMIKEHILAIAIYESRILKRKYKNKDDKEVCKIINKTFADIRDIIGGTDYWNDLSNRKLVGKINTNSNYVHRNKQNDKLFRDEWWKVIKKDVWNVISWVFKDKTVCKEDDIENIPQFFRWFSEWGDDYCQDKTKMIETLKVECKEKPCEDDNCKRKCNSYKEWISKKKEEYNKQAKQYQEYQKGNNYKMYSEFKSIKPEVYLKKYSEKCSNLNFEDEFKEELHSDYKNKCTMCPEVKDVPISIIRNNEQTS
modifications: about 1 of 5 putative N-glycosylation sites occupied (Man14-16GlcNAc2) when expressed in P. pastoris
notes: also called EBA-175 RII; P. pastoris derived EBA-175 RII protein
- binding result [1]: binds

B2: Non-N-glycosylated EBA-175 RII protein (RII-N-Gly-) expressed in Pichia pastoris (ligand)
chain: B1 chain with N3Q, S50A, S195A, T206A, N400Q
notes: also called mutated RII protein; non-N-glycosylated RII
- binding result [2]: binds
